The text below walks through data of patent publication US20150374794A1 (Novo Nordisk, published 2015).

Numbered stars: 1 amine (or outer) side, 2 acyl side, 3 side chain; on linkers, the order of the positions; unused ones are H or OH. Square brackets hold non-standard residues; d marks the D form. Side chains are listed from the residue outwards. Ends that are not written are not given here. * marks the point of attachment. C18 diacid = O=C(O)CCCCCCCCCCCCCCCCC(=O)*; γGlu = O=C(O)[C@H](CCC(=O)[*:2])N[*:1]; Ac4c = NC1(C(=O)O)CCC1; AEEA = NCCOCCOCC(=O)O; Aib = CC(C)(N)C(=O)O

For assay [1], the target named is T1, human GLP-1 receptor (human, UniProt P43220 24-463).
T1 construct: whole, on cells; the potency assay used whole cells (clone FCW467-12A/KZ10-1)
In words: displacement of 125I-GLP-1(7-36)NH2, membranes with human GLP-1R, SPA. The method, then:
The receptor binding of each compound to the human GLP-1 receptor was measured in a displacement binding assay. […] Each derivative was added in a series of concentrations to isolated membranes containing the human GLP-1 receptor and displacement of the labelled ligand was monitored. The receptor binding was reported as the concentration at which half of the labelled ligand was displaced from the receptor, the IC₅₀ value.
(In general: Loss of bound radioactivity is the signal in a displacement assay; it reports binding, not function.)

In assay [2] the target is T2, human glucagon receptor (human, UniProt P47871 26-477).
T2 construct: whole, on cells; the potency assay used whole cells (clone pLJ6'-4-25); also called GlucR; hGCGR
Nature of the assay: displacement of 125I-glucagon, membranes with human glucagon receptor, SPA. Here is the method:
The receptor binding of each compound to the human glucagon receptor was measured in a displacement binding assay. […] Each derivative was added in a series of concentrations to isolated membranes containing the human glucagon receptor and displacement of the labelled ligand is monitored. The receptor binding was reported as the concentration at which half of the labelled ligand is displaced from the receptor, the IC₅₀ value.

Assay [3] addresses T2, human glucagon receptor. In words: cell-based or functional assay.
Assay [4] has as its target T1, human GLP-1 receptor. In words: cell-based or functional assay.

T2 sequence (P47871 26-477): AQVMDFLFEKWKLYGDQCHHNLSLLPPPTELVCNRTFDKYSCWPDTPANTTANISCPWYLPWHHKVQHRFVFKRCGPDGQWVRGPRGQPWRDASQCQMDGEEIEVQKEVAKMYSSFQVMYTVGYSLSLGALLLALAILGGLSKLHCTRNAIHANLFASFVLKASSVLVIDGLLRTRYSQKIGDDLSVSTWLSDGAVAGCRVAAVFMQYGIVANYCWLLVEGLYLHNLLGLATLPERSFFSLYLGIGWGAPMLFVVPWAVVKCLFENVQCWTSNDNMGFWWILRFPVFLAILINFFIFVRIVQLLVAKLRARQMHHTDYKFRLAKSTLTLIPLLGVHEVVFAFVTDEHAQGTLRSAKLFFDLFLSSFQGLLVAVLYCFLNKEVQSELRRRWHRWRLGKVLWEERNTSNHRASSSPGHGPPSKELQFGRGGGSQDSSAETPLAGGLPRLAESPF

B1: N^ε28-[2-[2-[2-[[2-[2-[2-[[(4S)-4-carboxy-4-[[(4S)-4-carboxy-4-[[(4S)-4-carboxy-4-(17-carboxyheptadecanoylamino)butanoyl]amino]butanoyl]amino]butanoyl]amino]eth … (peptide)
peptide: H[Aib]QGTFTSDVSRYLDARRAQDFVQWLLK([AEEA-AEEA-γGlu-γGlu-γGlu-C18 diacid])T-NH2
modifications: N-terminus assumed
SMILES: CC(C)C[C@H](NC(=O)[C@H](Cc1ccc(O)cc1)NC(=O)[C@H](CCCNC(=N)N)NC(=O)[C@H](CO)NC(=O)[C@@H](NC(=O)[C@H](CC(=O)O)NC(=O)[C@H](CO)NC(=O)[C@@H](NC(=O)[C@H](Cc1ccccc1)NC(=O)[C@@H](NC(=O)CNC(=O)[C@H](CCC(N)=O)NC(=O)C(C)(C)NC(=O)[C@@H](N)Cc1c[nH]cn1)[C@@H](C)O)[C@@H](C)O)C(C)C)C(=O)N[C@@H](CC(=O)O)C(=O)N[C@@H](C)C(=O)N[C@@H](CCCNC(=N)N)C(=O)N[C@@H](CCCNC(=N)N)C(=O)N[C@@H](C)C(=O)N[C@@H](CCC(N)=O)C(=O)N[C@@H](CC(=O)O)C(=O)N[C@@H](Cc1ccccc1)C(=O)N[C@H](C(=O)N[C@@H](CCC(N)=O)C(=O)N[C@@H](Cc1c[nH]c2ccccc12)C(=O)N[C@@H](CC(C)C)C(=O)N[C@@H](CC(C)C)C(=O)N[C@@H](CCCCNC(=O)COCCOCCNC(=O)COCCOCCNC(=O)CC[C@H](NC(=O)CC[C@H](NC(=O)CC[C@H](NC(=O)CCCCCCCCCCCCCCCCC(=O)O)C(=O)O)C(=O)O)C(=O)O)C(=O)N[C@H](C(N)=O)[C@@H](C)O)C(C)C
What is called IC50 is the concentration that inhibits the measured activity by half. The low end stands for greater potency in that assay, the high end for weaker potency in that assay. Regarding B1, the IC50 in assay [1] was determined as 0.5 nM; in assay [2], 11.3 nM. The “EC50 GlucR, CRE luciferase reporter gene assay in BHK cells” value (shortened to “EC50 GlucR”) in assay [3] amounted to 57 pM. In addition, in assay [4], the “EC50 GLP-1R, CRE luciferase reporter gene assay in BHK cells” value (“EC50 GLP-1R” below) was determined as 3 pM.

H[Aib]QGTFTSDLSKYLDLKRAREFVQWLLK([γGlu-γGlu-AEEA-AEEA-γGlu-C18 diacid])T-NH2: the figures for the IC50 in assay [1] and in assay [2] were 0.5 nM and 4 nM, respectively. For the same molecule, in assay [3], the “EC50 GlucR” value was 8.7 pM. Further, the “EC50 GLP-1R” value in assay [4] is 9 pM.

Turning to H[Ac4c]HGTFTSDLSKYLESRRAQDFVQWLLK([Gly-Ser-Glu-Gly-Ser-γGlu-γGlu-C18 diacid])T-NH2, the IC50 was determined as 2.6 nM in assay [1] and 0.7 nM in assay [2]. In addition, in assay [3], the “EC50 GlucR” value was 1 pM. In addition, the “EC50 GLP-1R” value in assay [4] came to 3 pM.

B2: N^ε28-[(4S)-4-carboxy-4-[[(4S)-4-carboxy-4-[[2-[2-[2-[[2-[2-[2-[[(4S)-4-carboxy-4-(17-carboxyheptadecanoylamino)butanoyl]amino]ethoxy]ethoxy]acetyl]amino]ethoxy … (peptide)
peptide: H[Aib]QGTFTSDLSKYLDSRRAREFVQWLLK([γGlu-γGlu-AEEA-AEEA-γGlu-C18 diacid])T-NH2
modifications: N-terminus assumed
SMILES: CC(C)C[C@H](NC(=O)[C@H](Cc1ccc(O)cc1)NC(=O)[C@H](CCCCN)NC(=O)[C@H](CO)NC(=O)[C@H](CC(C)C)NC(=O)[C@H](CC(=O)O)NC(=O)[C@H](CO)NC(=O)[C@@H](NC(=O)[C@H](Cc1ccccc1)NC(=O)[C@@H](NC(=O)CNC(=O)[C@H](CCC(N)=O)NC(=O)C(C)(C)NC(=O)[C@@H](N)Cc1c[nH]cn1)[C@@H](C)O)[C@@H](C)O)C(=O)N[C@@H](CC(=O)O)C(=O)N[C@@H](CO)C(=O)N[C@@H](CCCNC(=N)N)C(=O)N[C@@H](CCCNC(=N)N)C(=O)N[C@@H](C)C(=O)N[C@@H](CCCNC(=N)N)C(=O)N[C@@H](CCC(=O)O)C(=O)N[C@@H](Cc1ccccc1)C(=O)N[C@H](C(=O)N[C@@H](CCC(N)=O)C(=O)N[C@@H](Cc1c[nH]c2ccccc12)C(=O)N[C@@H](CC(C)C)C(=O)N[C@@H](CC(C)C)C(=O)N[C@@H](CCCCNC(=O)CC[C@H](NC(=O)CC[C@H](NC(=O)COCCOCCNC(=O)COCCOCCNC(=O)CC[C@H](NC(=O)CCCCCCCCCCCCCCCCC(=O)O)C(=O)O)C(=O)O)C(=O)O)C(=O)N[C@H](C(N)=O)[C@@H](C)O)C(C)C
As to B2, the figures for the IC50 in assay [1] and in assay [2] were 0.3 nM and 2.1 nM, respectively. The “EC50 GlucR” value in assay [3] was 6.3 pM. Moreover, in assay [4], the “EC50 GLP-1R” value came to 5.3 pM.

Turning to H[Ac4c]QGTFTSDLSKYLDLKRAREFVQWLLK([Gly-Ser-Glu-Gly-Ser-γGlu-γGlu-C18 diacid])T-NH2, the IC50 was found to be 0.2 nM in assay [1] and 3.1 nM in assay [2]. In assay [3], the “EC50 GlucR” value turned out to be 8 pM. Also, the “EC50 GLP-1R” value in assay [4] came out at 44 pM.

Turning to H[Aib]QGTFTSDLSKYLDLRRARDFVQWLLK([Gly-Ser-Glu-Ser-γGlu-γGlu-C18 diacid])T-NH2, the IC50 in assay [1] was determined as 1.1 nM; in assay [2], 18.4 nM. In addition, the “EC50 GlucR” value in assay [3] came to 30.5 pM. For the same molecule, in assay [4], the “EC50 GLP-1R” value was found to be 27 pM.

H[Ac4c]QGTFTSDLSKYLEERRARDFVQWLLK([Gly-Ser-Glu-Gly-Ser-γGlu-γGlu-C18 diacid])T-NH2: the IC50 in assay [1] worked out at 0.2 nM; in assay [2] it was 3.9 nM. Also, the “EC50 GlucR” value in assay [3] was determined as 113 pM. Besides, the “EC50 GLP-1R” value in assay [4] was determined as 5.8 pM.

B3: N^ε28-[2-[2-[2-[[2-[2-[2-[[(4S)-4-carboxy-4-[[(4S)-4-carboxy-4-[[(4S)-4-carboxy-4-(17-carboxyheptadecanoylamino)butanoyl]amino]butanoyl]amino]butanoyl]amino]eth … (peptide)
peptide: H[Aib]QGTFTSDVSRYLDLRRAQDFVQWLLK([AEEA-AEEA-γGlu-γGlu-γGlu-C18 diacid])T-NH2
modifications: N-terminus assumed
SMILES: CC(C)C[C@H](NC(=O)[C@H](CC(=O)O)NC(=O)[C@H](CC(C)C)NC(=O)[C@H](Cc1ccc(O)cc1)NC(=O)[C@H](CCCNC(=N)N)NC(=O)[C@H](CO)NC(=O)[C@@H](NC(=O)[C@H](CC(=O)O)NC(=O)[C@H](CO)NC(=O)[C@@H](NC(=O)[C@H](Cc1ccccc1)NC(=O)[C@@H](NC(=O)CNC(=O)[C@H](CCC(N)=O)NC(=O)C(C)(C)NC(=O)[C@@H](N)Cc1c[nH]cn1)[C@@H](C)O)[C@@H](C)O)C(C)C)C(=O)N[C@@H](CCCNC(=N)N)C(=O)N[C@@H](CCCNC(=N)N)C(=O)N[C@@H](C)C(=O)N[C@@H](CCC(N)=O)C(=O)N[C@@H](CC(=O)O)C(=O)N[C@@H](Cc1ccccc1)C(=O)N[C@H](C(=O)N[C@@H](CCC(N)=O)C(=O)N[C@@H](Cc1c[nH]c2ccccc12)C(=O)N[C@@H](CC(C)C)C(=O)N[C@@H](CC(C)C)C(=O)N[C@@H](CCCCNC(=O)COCCOCCNC(=O)COCCOCCNC(=O)CC[C@H](NC(=O)CC[C@H](NC(=O)CC[C@H](NC(=O)CCCCCCCCCCCCCCCCC(=O)O)C(=O)O)C(=O)O)C(=O)O)C(=O)N[C@H](C(N)=O)[C@@H](C)O)C(C)C
B3: the IC50 in assay [1] came to 1.5 nM; in assay [2], 16.2 nM. The “EC50 GlucR” value in assay [3] came out at 49 pM. Further, in assay [4], the “EC50 GLP-1R” value is 5 pM.

B4: N^ε28-[(4S)-4-carboxy-4-[[2-[2-[2-[[2-[2-[2-[[(4S)-4-carboxy-4-[[(4S)-4-carboxy-4-(17-carboxyheptadecanoylamino)butanoyl]amino]butanoyl]amino]ethoxy]ethoxy]acet … (peptide)
peptide: H[Aib]HGTFTSDLSKYLESRRAREFVAWLLK([γGlu-AEEA-AEEA-γGlu-γGlu-C18 diacid])T-NH2
modifications: N-terminus assumed
SMILES: CC(C)C[C@H](NC(=O)[C@H](Cc1c[nH]c2ccccc12)NC(=O)[C@H](C)NC(=O)[C@@H](NC(=O)[C@H](Cc1ccccc1)NC(=O)[C@H](CCC(=O)O)NC(=O)[C@H](CCCNC(=N)N)NC(=O)[C@H](C)NC(=O)[C@H](CCCNC(=N)N)NC(=O)[C@H](CCCNC(=N)N)NC(=O)[C@H](CO)NC(=O)[C@H](CCC(=O)O)NC(=O)[C@H](CC(C)C)NC(=O)[C@H](Cc1ccc(O)cc1)NC(=O)[C@H](CCCCN)NC(=O)[C@H](CO)NC(=O)[C@H](CC(C)C)NC(=O)[C@H](CC(=O)O)NC(=O)[C@H](CO)NC(=O)[C@@H](NC(=O)[C@H](Cc1ccccc1)NC(=O)[C@@H](NC(=O)CNC(=O)[C@H](Cc1c[nH]cn1)NC(=O)C(C)(C)NC(=O)[C@@H](N)Cc1c[nH]cn1)[C@@H](C)O)[C@@H](C)O)C(C)C)C(=O)N[C@@H](CC(C)C)C(=O)N[C@@H](CCCCNC(=O)CC[C@H](NC(=O)COCCOCCNC(=O)COCCOCCNC(=O)CC[C@H](NC(=O)CC[C@H](NC(=O)CCCCCCCCCCCCCCCCC(=O)O)C(=O)O)C(=O)O)C(=O)O)C(=O)N[C@H](C(N)=O)[C@@H](C)O
As for B4, the IC50 in assay [1] came to 1.5 nM; in assay [2] it was 0.8 nM. Moreover, the “EC50 GlucR” value in assay [3] stood at 2.9 pM. In addition, the “EC50 GLP-1R” value in assay [4] amounted to 19.5 pM.

For H[Aib]HGTFTSDLSKYLESRRARDFVQWLLK([Gly-Ser-Glu-Gly-Ser-γGlu-γGlu-C18 diacid])T-NH2, the IC50 in assay [1] was determined as 0.2 nM; in assay [2] it was 0.1 nM. In assay [3], the “EC50 GlucR” value came to 2 pM. Besides, the “EC50 GLP-1R” value in assay [4] is 4 pM.
